Test results published in article PMC9886945 (Nature Communications, 2023).

Columns and labels:
Test in all cases: cryo-EM structure
[1] = biological target: Mycobacterium tuberculosis RNA polymerase β' subunit (M. tuberculosis, UniProt P9WGY7); details: both partners purified
[2] = biological target: T1, Mycobacterium tuberculosis RNA polymerase β subunit (M. tuberculosis, UniProt P9WGY9); details: both partners purified
T1 sequence: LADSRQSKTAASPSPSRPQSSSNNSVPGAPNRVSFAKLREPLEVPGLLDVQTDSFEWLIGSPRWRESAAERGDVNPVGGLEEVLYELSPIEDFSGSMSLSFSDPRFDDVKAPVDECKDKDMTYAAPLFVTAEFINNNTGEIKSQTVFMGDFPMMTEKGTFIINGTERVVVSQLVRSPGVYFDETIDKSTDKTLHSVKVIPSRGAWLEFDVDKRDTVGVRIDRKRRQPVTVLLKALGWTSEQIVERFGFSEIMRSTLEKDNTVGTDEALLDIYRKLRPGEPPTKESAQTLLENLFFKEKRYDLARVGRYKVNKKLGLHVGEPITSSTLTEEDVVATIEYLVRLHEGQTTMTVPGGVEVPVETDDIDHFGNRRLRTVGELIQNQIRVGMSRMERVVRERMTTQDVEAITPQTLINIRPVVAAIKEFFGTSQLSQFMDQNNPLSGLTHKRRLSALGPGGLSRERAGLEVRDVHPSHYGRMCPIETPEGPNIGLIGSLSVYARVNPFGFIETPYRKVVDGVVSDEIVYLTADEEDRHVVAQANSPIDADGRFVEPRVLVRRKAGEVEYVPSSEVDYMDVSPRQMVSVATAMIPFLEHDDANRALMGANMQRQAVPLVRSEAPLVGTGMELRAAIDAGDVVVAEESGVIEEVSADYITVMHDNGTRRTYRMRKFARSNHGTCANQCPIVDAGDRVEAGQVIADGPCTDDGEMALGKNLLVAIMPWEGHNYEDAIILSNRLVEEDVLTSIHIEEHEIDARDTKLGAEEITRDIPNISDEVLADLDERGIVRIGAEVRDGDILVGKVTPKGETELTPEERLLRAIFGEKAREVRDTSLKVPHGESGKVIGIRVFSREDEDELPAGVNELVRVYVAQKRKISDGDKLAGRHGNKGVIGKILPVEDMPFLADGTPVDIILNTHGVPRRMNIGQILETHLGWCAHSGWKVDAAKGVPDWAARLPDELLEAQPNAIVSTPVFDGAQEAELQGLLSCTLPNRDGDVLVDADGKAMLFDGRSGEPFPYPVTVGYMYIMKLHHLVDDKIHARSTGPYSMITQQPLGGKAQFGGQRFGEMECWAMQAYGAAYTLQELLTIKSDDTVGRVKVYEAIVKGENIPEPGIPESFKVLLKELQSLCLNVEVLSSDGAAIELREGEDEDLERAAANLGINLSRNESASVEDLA

cryo-EM structure = biological target: the molecule itself

Measured: binding result

Chain of Mycobacterium tuberculosis RNA polymerase β' subunit (P9WGY7 whole entry): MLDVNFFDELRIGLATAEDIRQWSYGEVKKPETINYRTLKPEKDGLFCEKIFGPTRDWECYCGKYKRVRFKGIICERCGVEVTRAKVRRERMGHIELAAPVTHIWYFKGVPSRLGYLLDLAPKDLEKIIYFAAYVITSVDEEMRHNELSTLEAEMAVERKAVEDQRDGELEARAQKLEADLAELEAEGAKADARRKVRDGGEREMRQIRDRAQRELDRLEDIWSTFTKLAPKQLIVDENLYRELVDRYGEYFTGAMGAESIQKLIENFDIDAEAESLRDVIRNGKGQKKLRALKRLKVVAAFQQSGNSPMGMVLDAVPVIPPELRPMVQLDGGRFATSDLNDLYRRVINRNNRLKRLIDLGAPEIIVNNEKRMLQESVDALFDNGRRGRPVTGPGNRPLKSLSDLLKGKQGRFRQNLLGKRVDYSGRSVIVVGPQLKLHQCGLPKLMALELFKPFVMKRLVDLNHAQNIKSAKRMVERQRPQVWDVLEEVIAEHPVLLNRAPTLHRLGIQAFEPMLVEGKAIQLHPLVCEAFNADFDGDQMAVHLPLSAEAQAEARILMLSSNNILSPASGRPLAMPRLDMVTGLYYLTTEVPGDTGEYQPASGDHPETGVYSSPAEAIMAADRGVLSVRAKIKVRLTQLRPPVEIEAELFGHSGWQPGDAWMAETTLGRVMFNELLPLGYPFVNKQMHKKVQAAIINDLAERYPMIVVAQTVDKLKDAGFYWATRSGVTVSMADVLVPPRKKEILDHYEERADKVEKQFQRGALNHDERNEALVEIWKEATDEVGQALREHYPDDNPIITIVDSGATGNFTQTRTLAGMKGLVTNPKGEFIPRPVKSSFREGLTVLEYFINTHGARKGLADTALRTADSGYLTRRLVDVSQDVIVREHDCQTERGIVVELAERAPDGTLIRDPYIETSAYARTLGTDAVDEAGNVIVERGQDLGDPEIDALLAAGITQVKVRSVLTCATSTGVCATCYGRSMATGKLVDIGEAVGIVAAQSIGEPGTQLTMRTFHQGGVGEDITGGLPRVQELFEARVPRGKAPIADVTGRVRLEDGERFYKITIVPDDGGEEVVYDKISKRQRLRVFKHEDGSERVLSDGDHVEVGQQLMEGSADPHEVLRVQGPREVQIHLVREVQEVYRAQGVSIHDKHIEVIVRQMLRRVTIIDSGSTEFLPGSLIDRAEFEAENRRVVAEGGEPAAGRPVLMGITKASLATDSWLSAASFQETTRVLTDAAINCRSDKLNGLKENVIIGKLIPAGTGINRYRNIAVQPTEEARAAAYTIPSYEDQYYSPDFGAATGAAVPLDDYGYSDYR

B1: Mycobacterium tuberculosis σ^B subunit (natural protein)
chain: MADAPTRATTSRVDSDLDAQSPAADLVRVYLNGIGKTALLNAAGEVELAKRIEAGLYAEHLLETRKRLGENRKRDLAAVVRDGEAARRHLLEANLRLVVSLAKRYTGRGMPLLDLIQEGNLGLIRAMEKFDYTKGFKFSTYATWWIRQAITRGMADQSRTIRLPVHLVEQVNKLARIKREMHQHLGREATDEELAAESGIPIDKINDLLEHSRDPVSLDMPVGSEEEAPLGDFIEDAEAMSAENAVIAELLHTDIRSVLATLDEREHQVIRLRFGLDDGQPRTLDQIGKLFGLSRERVRQIERDVMSKLRHGERADRLRSYAS
binds: [1] | [2] | cryo-EM structure
